Paper PMC11476435, “Functional Relationships between L1CAM, LC3, ATG12, and Aβ” (International Journal of Molecular Sciences, 2024)

B1: recombinant human ATG12 (autophagy-related protein 12) (natural protein, UniProt O94817 1-140, looked up)
chain: MAEEPQSVLQLPTSIAAGGEGLTDVSPETTTPEPPSSAAVSPGTEEPAGDTKKKIDILLKAVGDTPIMKTKKWAVERTRTIQGLIDFIKKFLKLVASEQLFIYVNQSFAPSPDQEVGTLYECFGSDGKLVLHYCKSQAWG
notes: source: bought: BIOZOL

Tests used:
Details in all cases: both partners purified
[1] = target: T1, L1Fc, extracellular domain of mouse L1 fused to Fc from human IgG (mouse, UniProt P11627 35-1112); experiment: ELISA; recombinant human ATG12 (10 µg/mL) coated on 384-well plates; different concentrations (1–200 µg/mL) of L1Fc or CHL1Fc in solution, 1 h at room temperature; detected with HRP-coupled anti-Fc antibody
T1 construct: The methods say that the Fc fusion presents dimers, not monomeric domains; also called extracellular domain of L1; soluble L1Fc chimera; source: recombinant, production and purification described in [111]
T1 sequence (P11627 35-1112): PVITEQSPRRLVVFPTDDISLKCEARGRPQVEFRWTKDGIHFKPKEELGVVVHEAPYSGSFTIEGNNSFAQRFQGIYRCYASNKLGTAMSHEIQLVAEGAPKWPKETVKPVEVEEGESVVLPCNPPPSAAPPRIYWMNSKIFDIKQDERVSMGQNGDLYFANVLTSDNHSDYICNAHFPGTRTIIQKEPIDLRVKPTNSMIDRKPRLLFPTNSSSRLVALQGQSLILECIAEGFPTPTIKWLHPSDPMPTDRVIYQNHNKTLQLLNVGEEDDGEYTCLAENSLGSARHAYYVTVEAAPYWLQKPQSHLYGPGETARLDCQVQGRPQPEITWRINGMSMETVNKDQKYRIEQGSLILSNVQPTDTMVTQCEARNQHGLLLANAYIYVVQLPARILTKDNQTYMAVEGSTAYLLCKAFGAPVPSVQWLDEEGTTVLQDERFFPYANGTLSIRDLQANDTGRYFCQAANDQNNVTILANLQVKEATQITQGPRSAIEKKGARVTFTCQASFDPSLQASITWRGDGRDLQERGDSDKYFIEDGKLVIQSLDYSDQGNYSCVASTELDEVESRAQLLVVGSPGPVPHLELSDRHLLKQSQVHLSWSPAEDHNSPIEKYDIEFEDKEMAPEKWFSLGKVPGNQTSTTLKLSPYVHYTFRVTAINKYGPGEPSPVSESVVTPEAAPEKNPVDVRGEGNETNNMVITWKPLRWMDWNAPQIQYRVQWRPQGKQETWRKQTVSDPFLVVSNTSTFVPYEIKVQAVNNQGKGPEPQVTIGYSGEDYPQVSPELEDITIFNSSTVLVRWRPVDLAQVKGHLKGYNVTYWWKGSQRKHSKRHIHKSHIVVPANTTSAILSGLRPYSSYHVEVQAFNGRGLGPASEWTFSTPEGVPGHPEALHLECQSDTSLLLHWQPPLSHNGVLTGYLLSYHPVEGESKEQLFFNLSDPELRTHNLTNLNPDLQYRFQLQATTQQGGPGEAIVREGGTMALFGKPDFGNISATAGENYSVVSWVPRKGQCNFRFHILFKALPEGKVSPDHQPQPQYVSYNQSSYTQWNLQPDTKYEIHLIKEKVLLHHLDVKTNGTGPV

[2] = target: recombinant human LC3B (microtubule-associated protein 1 light-chain 3) (human, UniProt Q9GZQ8 1-120); experiment: ELISA; competition: recombinant LC3B, ATG12 or Aβ1-42 coated; L1Fc in solution alone or with a 20-fold molar excess of Aβ, L1-LIR peptide or mutated LIR peptide as competitor, 1 h at room temperature; detected with HRP-coupled anti-Fc antibody
[3] = target: B1; experiment: as above

B1
binding result [1]: binds

B2: mouse L1-LIR peptide containing the extracellular LC3-interacting region (LIR) motif of L1 (peptide)
peptide: SHNGVLTGYLLSYHPVEGESKEQ
notes: 23-amino-acid peptide of mouse L1 with the LIR motif 952LSYHPV957 of the fourth fibronectin type III homologous repeat; source: synthetic peptide, bought: Schafer-N
binding result [2]: binds
binding result [3]: binds
